The numbers were not newly measured in publication PMC5298935, which cites them from elsewhere.

pKd: −log10 of the molar value.

In data set [1] the target is IRAK1 p131 peptide UD (Homo sapiens) (UniProt P51617). Briefly: NMR.
The target in data set [2] is IRAK1 p173 peptide UD (Homo sapiens) (UniProt P51617). Briefly: NMR.
For data set [3], the target named is IRAK1 p144 peptide UD (Homo sapiens) (UniProt P51617). Description: NMR.
For data set [4], the target named is IRAK1 p173 peptide 157-180 (Homo sapiens) (UniProt P51617). Description: NMR titration.
The target in data set [5] is IRAK1 p144 peptide 140-149 (Homo sapiens) (UniProt P51617). Briefly: NMR titration.
Sequence of IRAK1 p144 peptide 140-149 (Homo sapiens) (P51617 whole entry, looked up, tested part not stated): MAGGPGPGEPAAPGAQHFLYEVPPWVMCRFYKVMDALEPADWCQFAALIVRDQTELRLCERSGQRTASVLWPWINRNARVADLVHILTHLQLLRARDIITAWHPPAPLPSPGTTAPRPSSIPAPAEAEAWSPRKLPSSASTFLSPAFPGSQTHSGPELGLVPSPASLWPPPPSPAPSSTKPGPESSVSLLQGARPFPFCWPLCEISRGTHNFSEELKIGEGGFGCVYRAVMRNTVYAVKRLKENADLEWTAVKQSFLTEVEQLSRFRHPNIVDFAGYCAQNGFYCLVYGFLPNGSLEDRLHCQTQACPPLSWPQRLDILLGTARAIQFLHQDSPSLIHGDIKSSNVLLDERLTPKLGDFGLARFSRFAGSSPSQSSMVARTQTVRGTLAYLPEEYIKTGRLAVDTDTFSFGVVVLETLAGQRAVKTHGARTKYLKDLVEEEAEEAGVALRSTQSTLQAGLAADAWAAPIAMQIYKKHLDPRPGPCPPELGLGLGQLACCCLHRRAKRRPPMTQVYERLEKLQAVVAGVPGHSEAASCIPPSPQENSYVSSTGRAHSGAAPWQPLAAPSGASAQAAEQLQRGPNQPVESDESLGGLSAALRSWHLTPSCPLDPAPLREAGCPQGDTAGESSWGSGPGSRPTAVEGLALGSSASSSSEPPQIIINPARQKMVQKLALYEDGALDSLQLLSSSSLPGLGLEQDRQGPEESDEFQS

Sequence of Pin1 WW (Q13526 2-42): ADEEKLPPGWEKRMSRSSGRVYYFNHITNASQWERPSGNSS
Sequence of Pin1 WW domain 1-50 (Q13526 1-50): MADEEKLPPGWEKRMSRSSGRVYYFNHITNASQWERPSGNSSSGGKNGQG
Sequence of IRAK1 p173 peptide UD (Homo sapiens) (P51617 whole entry, looked up, tested part not stated): as the sequence (P51617 whole entry, looked up, tested part not stated) above
Sequence of IRAK1 p131 peptide UD (Homo sapiens) (P51617 whole entry, looked up, tested part not stated): as above
Sequence of IRAK1 p144 peptide UD (Homo sapiens) (P51617 whole entry, looked up, tested part not stated): as above
Sequence of IRAK1 p173 peptide 157-180 (Homo sapiens) (P51617 157-180): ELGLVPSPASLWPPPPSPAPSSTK

As usually defined, the pKd is the Kd on a negative log10 scale, so that one unit is a factor of ten. As to Pin1 WW (from UniProt Q13526), the pKd in data set [1] was 3.66; in data set [2] it was 3.59; in data set [3] it was 3.92.

With “Pin1 WW domain 1-50 (from UniProt Q13526)”, the pKd in data set [4] was 3.59; in data set [5], 3.92.
